A short description of the series: soluble on expression in E. coli; label from the status in PepcDB or PDB records.
With “ISRLLKNNLMDDVFNTENESFAQETRLIENEYSINLPTRFYYKKKWNDGWINVVNPFRASMVLGTPGSGKSYAIVNNYIKQQIEKGFAVYIYDYKFPDLSEIAYNHLISYLDGYKVKPKFYMINFDDPRKSHRCNPINPAFMTDISDAYEASYTIMLNLNRSWITKQGDFFVESPIILLASIIWFLKIYQGGKYCTFPHAIEFLNKKYADTFTILTSYPELENYLSPFMDAWESNAQDQLQGQLASAKIPLSRMISPALYWVMTGDDFSLDINNPEEPKILVVGNNPDRQNIYSCALGLYNSRIVKLINKKHQLKSSVIIDELPTIYFRGLDNLIATARSNKVAVCLGFQDFSQLRRDYGDKESKVIENTVGNIFSGQVVSETAKTLSDRFGKVLQKRQSMTINRNDKSTSISTQMDSLIPPSKISNLTQGMFVGAVSDNFDERIEQKIFHAEIMVDNEKVKRETASYKKLPQIIDFRDEDGNDRMQEEIQANYNRVKQEVQQIITDEIERIKNDPNLQNLLKHE”, the “soluble on expression in E. coli” value was “not soluble”.
The result for “ITEDEIRTLMEQGADEGVFDRAEQELVENIFRLDNRKASAVMTPRKDVVILDLEDGPERNRELLLGHPFSHFPVCRGDTDQVIGMLNAKTLLDRLLRGEALDFAAELSPPLYVPSTCSLMQLLEQFKQARSHSALVVDEYGELEGLVSINNVMEAIVGDLPAIDGEEDEIV” reads “not soluble”.
Next, “ITEEEAKLFTEQLGDIIQFAEQLNELDTEGVEPTSHVLDMKNVLREDKPEKGLPVEDVLKNAPDHEDGQIR”: “not soluble”.
In the case of “IVMQFPREEYFAPGHRGCAGCGAAIVARLLLKVAGKDTIITNATGCLEVMTTPYPETSWRVPWIHTAFENAAATASGIEAAVKALKRKRGKFADKKINVIAIGGDGGTADIGFQALSGAMERGHDILYIMYDNEAYMNTGIQRSSSTPFMAATTTSPAGSKIRGEDRPKKDMTMIMAAHGIPYVATACISYPEDFMRKVKKALSIEGPKFIQVLQPCTTGWGYPPEKTIEIGRLAVETGIFPLYEIENGEFRITYKPAKRKPVREYLKMQKRYRHLTDEDIERIQKYIDEKCKLLGL”, the “soluble on expression in E. coli” value is given as “not soluble”.
Next, “IVVLHGLYMHGLVMKPLASRLRRKGHSVQVVSYNSVRINEALLFKRIRNCLSETEKNVIVGHSLGGILAVHFVNSHNDKHTPIDSIVTIGSPLQGASIAKEIQNRKLGFILGNSKEQGLVDVNQLTVDCPIGSIAGTLPIGIRSSIIRDRVPSDGTVTVEETVLPELKDHLCLNYSHTSLIYAKQTVEQIDYFIHHHEFKRV”: “not soluble”; “KDFCASIHRNDSLSLTHELEPFIDSMKNKTGVYVLEDGGGSLITRAWLSEYAEETIDIQYFIFSADNVGLIACDYLVRAADRGVKVRILIDDILVEAGVHEILTLDSHENIEIKIYNPGINLGKNIFNKIGKFTTDFRGANQRMHNKTFIVDHKVVITGGRNIADEYFDYDHEYNFRDRDVLLIGKTATDVQQSFESFWVDALSIPITGLVKEDDVTYTDTSRFERLHQYACNPDNFWPQVRKRISN”: “not soluble”; “KFFNLFLKKGNKINPLIGNAGVSAVPDSARISQVIGLEYDPTNYLLMHAM”: “not soluble”.
As to “KGPNLTEISKKITESNAVVLAVKEVETLLTSIDELAKAIGKKIKSDVSLDNEADHNGSLMSGAYLISTLITKKISAIKDSGELKAEIEKAKKCSEEFTAKLKGEHTDLGKEGVTDDNAKKAILKTNNDKTKGADELEKLFESVKNLSKAAKEMLTNSVKELTSP”, the “soluble on expression in E. coli” value is “soluble”.
Regarding “KGSTFIKAQDKYEVNILYLISHALVETGNGQSDLSKGIKEGDHHYYNFFGIGAFDEDAVKTGKSFAKQKKWTTPEKAIMGGAWFVRYHYFKNNQLSLYQMRWNPQNPGQHQYASDIQWANNIADLMEKYYDKYGIKKDHIRKKYYK”, the “soluble on expression in E. coli” value is on record as “not soluble”.
The result for “KIKRMECFDISHTMGNQTVASCVVFNKEGPLKSDYRRFNIEGITGGDDYAAMEQVLQKRYERDLEEDKIPDIIFIDGGKGQLNRALNVFQHLQVKWDKNRPHLIGVAKGVDRRAGQEVLIISKQDREIHLPDDSLALHLIQHIRDESHNHAISGHRKKRQKAF” reads “not soluble”.
“KKEQEQMLKEERKRELEEKVKAVEDRAKRRKLREERAWLLAQGKELPPELSHLDPNSPMREEKKTKDLFELDDDFTAMYKVLDVVKAHKDSWPFLEPVDESYAPNYYQIIKAPMDISSMEKKLNGGLYCTKEEFVNDMKTMFRNCRKYNGESSEYTKMSDNLERCFHRAMMKHFPGEDGDTDEEFWIREDEKREKRRSRAGRSGGSHVWTRSRDPEGSSRKQQPMENGGKSLPPTRRAPSSGDDQSSSSTQPPREVGTSNGRGFSHPLHCGGTPSQAPFLNQMRPAVPGTFGPLRGSDPATLYGSSGVLEPHPGEPVQQRQPFTMQPPVGINSLRGPRLGTPEEKQMCGGLTHLSNMGPHPGSLQLGQISGPSQDGSMYAPAQFQPGFIPPRHGGAPARPPDFPESSEIPPSHMYRSYKYLNRVHSAVWNGNHGATNQGPLGPDEKPHLGPGPSHQPRTLGHVMDSRVMRPPVPPNQWTEQSGFLPHGVPSSGYMRPPCKSAGHRLQPPPVPAPSSLFGAPAQALRGVQGGDSMMDSPEMIAMQQLSSRVCPPGVPYHPHQPAHPRLPGPFPQVAHPMSVTVSAPKPALGNPGRAPENSEAQEPENDQAEPLPGLEEKPPGVGTSEGVYLTQLPHPTPPLQTDCTRQSSPQERETVGPELKSSSSESADNCKAMKGKNPWPSDSSYPGPAAQGCVRDLSTVADRGALSENGVIGEASPCGSEGKGLGSSGSEKLLCPRGRTLQETMPCTGQNAATPPSTDPGLTGGTVSQFPPLYMPGLEYPNSAAHYHISPGLQGVGPVMGGKSPASHPQHFPPRGFQSNHPHSGGFPRYRPPQGMRYSYHPPPQPSYHHYQRTPYYACPQSFSDWQRPLHPQGSPSGPPASQPPPPRSLFSDKNAMASLQGCETLNAALTSPTRMDAVAAKVPNDGQNPGPEEEKLDESMERPESPKEFLDLDNHNAATKRQSSLSASEYLYGTPPPLSSGMGFGSSAFPPHSVMLQTGPPYTPQRPASHFQPRAYSSPVAALPPHHPGATQPNGLSQEGPIYRCQEEGLGHFQAVMMEQIGTRSGIRGPFQEMYRPSGMQMHPVQSQASFPKTPTAATSQEEVPPHKPPTLPLDQS”: the “soluble on expression in E. coli” value is “soluble”.
The result for “KKLCGYLSKFGGKGPIRGWKSRWFFYDERKCQLYYSRTAQDANPLDSIDLSSAVFDCKADAEEGIFEIKTPSRVITLKAATKQAMLYWLQQLQMKRWEFHNSPPAP” reads “soluble”.
The result for “KKTEWSREEEEKLLHLAKLMPTQWRTIAPIIGRTAAQCLEHYEFLLDKAAQRD” reads “soluble”; that for “KLEYRISYDDEKEIKAIVFIIGGYGANANIYFLDSYRNYIAKNFDVVAVHVFYHCFCQRRSDVEKYSAYKYFQEEDIENIKNLLNQFHFSYGEINNDNALFLANSLVKHVENLKMQNKLDHNFKLNFTSTFIPPNGDYQNYGIMAAIDHINALKDLVKRFPKFADLPK”, “not soluble”; that for “KMFSYEGQVIIVTGDEKSTEFCNTATANYDSFRAGPVFDGTGLNPFCFVAHDFTADYLPNGQAKMFSSNVSYAQGDRIFDDVSTWDDYSLRVNHPLRIAGDRVYLQGHGYAPTFSIQWPNGEKRTQTVQWQPTDPTFFLSDGVVRFDPPAGMNDSVYDRRQHQLAIQGLFAPTASWEGENHELLTSRFPAMTDPAVAIDVYRGDNGLDSGKGQNLFKLDTSLVHSGQLQRLERVNLTKGESVTLDDGTVVTFEGAEEFANYQISHDPTQ”, “not soluble”.
The result for “KNSFNIKLKEDSEMLEEVVVTGYGGKQLRTKVTNSIAKVKDEALKVGLFSNPAQALSGAVAGLKVTQASGSPGAAPKVTLRGGTNFDGSGDPLVIVDGQLRDGMQDINPEDIESMEVLKDAGATAIYGARASNGVILITTKTGKEGR” reads “not soluble”.
Regarding “KPAAHLIGDPSKQNSLLWRANTDRAFLQDGFSLSNNSLLVPTSGIYFVYSQVVFSGKAYSPKATSSPLYLAHEVQLFSSQYPFHVPLLSSQKMVYPGLQEPWLHSMYHGAAFQLTQGDQLSTHTDGIPHLVLSPSTVFFGAFAL”, the “soluble on expression in E. coli” value is listed as “soluble”.
Next, “KPKFFYIKSELNGKVLDIEGQNPAPGSKIITWDQKKGPTAVNQLWYTDQQGVIRSKLNDFAIDASHEQIETQPFDPNNPKRAWIVSGNTIAQLSDRDIVLDIIKSDKEAGAHICAWKQHGGPNQKFIIESE”: “soluble”; “KQGQTALGVEFGSTRIKSVLIDANNFEVLASGSFEWDNQLVNGIWTYSLDDVWKGLQASYTDLKAEVKDKYDFKLSKIGQIGISAMMHGYLVFDQADKQLAEFRTWRNAITEQAAGELSKLFNFNIPQRWCIAHLYQAILNQEKSVSQIDFMTTLAGYVHWRLTGKKVTGIGDASGIFPIDSNSKDYDQKKLDQFSDLDGVEKQPWDIKRILPKVLLAGQNAGQLTKEGSLLIDPSGDLQDGSVFCPPEGDA”: “not soluble”; “KRFTADVEQQAEKILSQMTLDEKLSYIGGINWMYTRPLERFGIPRLKMSDGPQGLGTHGPSTAYPCALMLAATWNEQLATEYGSALGKDCRARGVHVLLGPAVNIYRAPMCGRNFEYMGEDPYLTSRMATGYIKGVQGQGVMATIKHFIANNSDYDRDHISSDIDERTLNEIYFPSFRAAVQEAEVGAVMSSYNLLNGIYTTEHPWLLKDVLRQQWGFKGILMSDWGSTHHCIPAVKGGLDLEMPAGSKMQPEELKYYLRTGDITIETIDEKVRHILQTLLAFGFRETQQPDTHIPLKNPQCAQTA”: “not soluble”.
The result for “KRKFACVECRQQKSKCDAHERAPEPCTKCAKKNVPCILKRDFRRTYKRARNEAIEKRFKELTRTLTNLTSDE” reads “soluble”.
The result for “KTKNEPKVILELAKESDLPEFQKKLQEAFAIAVIETFGDCEDGPIPSDNDVQESFNAPGAVVYHILQDGKNVGGAVVRINSQTNHNSLDLFYVSPEYHSQGIGLSAWKAIEAQYPDTVLWETVTPYFEKRNINFYVNKCGFHIVEFYNEHHSNPHMHRNGR” reads “soluble”.
In the case of “KVKELTILYRGSTAPTLASGLTPFHKDSLDVWTDWGVNDIPTAIQITNGGGSTVTPQLKTSAETLKQTMKLYPNAQIYVYGHSLGSMNAQYAIADLDKKDIKRISGGFFYQGPNIYSNLTPKQQDTVKAINALDRLFNFIDRKDYVAIGYGTGDPTIGHLIEVESKKAGLV”, the “soluble on expression in E. coli” value is recorded as “not soluble”.
In the case of “LADTSPMDKKGRKAEDALVVNVRANLYWWEFEYPDYGIITSQELIVPTDQRVYFNLKASDVKHSFWIPSVGGKLDTNTDNENKFFLTFDSKRSKEAGDMFFGKCAELCGPSHALMDFKVKTMSAKEFQGWTKEMKNYKSTAESDLAKQGEELFKEKNCLSCHAVEPNDKRAEAARTAPNLATFGERTKVAGVKEANKENVKAWLKDPDSIKPGNKMTGTYPKLSDSETNALYEYLKGLKAE”, the “soluble on expression in E. coli” value was “not soluble”.
The result for “LANKQIESRIIQFDVEFPSDEVAKQLSIEKTVPVYHIIRLRKVEGEPYVIEETYMPSNVISELNEDVLHGSVYRHITETLKLTIAGSHRKIRADKSSALDREYLECAPDDPVLEVEQVAFLNTGEPFEYSFARHRYDKFVFSSVHIRK” reads “not soluble”.

Values taken from the DeepSol protein solubility set.
